For this assay, the target named is E351K human MLKL (residues 2–471), recombinant (human) (UniProt Q8NB16).

“E351K human MLKL (residues 2–471), recombinant (from UniProt Q8NB16 2-471) (natural protein)”: the liposome dye release (5(6)-carboxyfluorescein), 1 μM protein, with ATP (% maximum dye release) turned out to be 40 and the liposome dye release (5(6)-carboxyfluorescein), 1 μM protein, without ATP is 15 % of maximum.

Values taken from article PMC6013482, “Conformational switching of the pseudokinase domain promotes human MLKL tetramerization and cell death by necroptosis” (Nature Communications, 2018).
